# Source: the DeepSol protein solubility set
# Test: soluble on expression in E. coli; label from the status in PepcDB or PDB records
row,Sequence,soluble on expression in E. coli
1,MGSDKIHHHHHHMIPEKRIIRRIQSGGCAIHCQDCSISQLCIPFTLNEHELDQLDNIIERKKPIQKGQTLFKAGDELKSLYAIRSGTIKSYTITEQGDEQITGFHLAGDLVGFDAIGSGHHPSFAQALETSMVCEIPFETLDDLSGKMPNLRQQMMRLMSGEIKGDQDMILLLSKKNAEERLAAFIYNLSRRFAQRGFSPREFRLTMTRGDIGNYLGLTVETISRLLGRFQKSGMLAVKGKYITIENNDALAQLAGHTRNVA,not soluble
2,MGSDKIHHHHHHSGSFDPVTGAYTTDPITVTLTPKTVAVSTSVIANGERVYWATDKYPQGAGTFYWGSHTYTLESASDVTLAIPGINASGVCTATGSGTSLTINGCFSFSHNGTIYMGKSASCKSFFSLQSNLSSLTNFGDFVALTLGPGTNTIQLNKTGITDVNTTSFTYPSTTRSTSYRWTTYDINLQATLSAKTPPYTYLYCSVSQGLRVIMTTGGVVPNPFAMVPAASKPAYSPTISYSPALPIINTIAVNIRNITAIDILPRTVFNTGTISAWRTTYMEQPLTVTGQGNITRDFGASQNFNVLESWTCATTGQIDFRIMRDNTNANVCSGATYTHPVQTPQSLTAQWKAQSSTASGAWSARATVTFTLP,not soluble
3,MGSDKIHHHHHHMKVTLKTLTPLHIGSGEKYPPCNLVVLKEEENKKTAVRLITRKFLEVLRKHPEIKQNISENISKPLSFKEVENVEDGVFYEVSLYSDFSSGKKNPEIPEVVHHPDGSVYVPGSSLKGAVRLALTWHVLRNNRNLLEEFRRNVQKDLQNHKRAFYQTNEFLNGLFRFAPKEINTDYFRFLRVSDSQTLRTQLVVHDVGIFYVARPNTHPRTFPLEFVPINRDFVFDVRFVKEEYDYFLTHVRKRYGVELPGSIEEIFSIVNEFYSEVFKFERERFKKAKENFEKLDTSKIEERFQKIEKVLQSKKYVLIHIGYGGGLMANSLFILLDEETRKQVRNIIKYHKDDEAPLTRRYLVQSENNSYRVISPIGWCALWLEDSQST,not soluble
4,VTNVSWLVTGSMSALSIPGLIFSLRSSHPNLNFTPYLTQSASRIVTMTSMATLSGVTPRNSDWGSEPEATPSHIQIESESDAYLIAPATLDFLARFARYDCSTPFSLALQCTKKPILVAPS,not soluble
5,MASATTSSKNGKPLVVVYGDYKCPYCKELDEKVMPKLRKNYIDNHKVEYQFVNLAFLGKDSIVGSRASHAVLMYAPKSFLDFQKQLFAAQQDENKEWLTKELLDKHIKQLHLDKETENKIIKDYKTKDSKSWKAAEKDKKIAKDNHIKTVPTAFINGEKVEDPYDYESYEKLLKDKIKLEHHHHHH,soluble
6,MSLVACECLPSPGLEPEPCSRARSQAHVYLEQIRNRVALGVPDMTKRDYLVDAATQIRLALERDVSEDYEAAFNHYQNGVDVLLRGIHVDPNKERREAVKLKITKYLRRAEEIFNCHLQRPLSSGASPSAVQLVQDPATGGTFVVKSLPRCHMVSRERLTIIPHGVPYMTKLLRYFVSEDSIFLHLEHVQGGTLWSHLLSQAHSRHSGLSSGSTQERMKAQLNPHLNLLTPARLPSGHAPGQDRIALEPPRTSPNLLLAGEAPSTRPQREAEGEPTARTSTSGSSDLPKAPGGHLHLQARRAGQNSDAGPPRGLTWVPEGAGPVLGGCGRGMDQSCLSADGAGRGCGRATWSVREEQVKQWAAEMLVALEALHEQGVLCRDLHPGNLLLDQAGHIRLTYFGQWSEVEPQCCGEAVDNLYSAPEVGGISELTEACDWWSFGSLLYELLTGMALSQSHPSGIQAHTQLQLPEWLSRPAASLLTELLQFEPTRRLGMGEGGVSKLKSHPFFSTIQWSKLVGTSLETHLRTLIHWLSGPKPDCPG,soluble
7,MGSDKIHHHHHHMTWNTPKPGEWKSEELSKGRIIDYKAFNFVDGEGVRNSLYVAGCMFHCEGCYNVATWSFDAGIPYTQELEEQIMEDLAQPYVQGLTLLGGEPFLNTGILLPLLKRIRKELPEKDIWSWTGYTWEELMLETPDKLEMLNLLDILVDGRFDKSKKNLMLQFRGSSNQRIIDVPKSLASGQVVIWDKLNDGKQTYEQIDRDGLI,not soluble
8,MAHHHHHHMDATELKNKGNEEFSAGRYVEAVNYFSKAIQLDEQNSVLYSNRSACFAAMQKYKDALDDADKCISIKPNWAKGYVRRGAALHGMRRYDDAIAAYEKGLKVDPSNSGCAQGVKDVQVAKAREARDPIARVFTPEAFRKIQENPKLSLLMLQPDYVKMVDTVIRDPSQGRLYMEDQRFALTLMYLSGMKIPNDGDGEEEERPSAKAAETAKPKEEKPLTDNEKEALALKEEGNKLYLSKKFEEALTKYQEAQVKDPNNTLYILNVSAVYFEQGDYDKCIAECEHGIEHGRENHCDYTIIAKLMTRNALCLQRQRKYEAAIDLYKRALVEWRNPDTLKKLTECEKEHQKAVEEAYIDPEIAKQKKDEGNQYFKEDKFPEAVAAYTEAIKRNPAEHTSYSNRAAAYIKLGAFNDALKDAEKCIELKPDFVKGYARKGHAYFWTKQYNRALQAYDEGLKVDPSNADCKDGRYRTIMKIQEMASGQSADGDEAARRAMDDPEIAAIMQDSYMQLVLKEMQNDPTRIQEYMKDSGISSKINKLISAGIIRFGQ,soluble
9,MSLSDAAISCSWKPFFRELATRLLDYEDRQPELLAALRDASISINHDEGEPLREVDPFTFFSLVLKHTSDATALPLFARVGAALGVQAPSPTDLIGVPWSNPMNAWFFAYRSQRQPGDVPLLWRLARQAVAGILDAQTFEDALKIRKVALPKLTQGLFWLNPERFLALNAVNVPYLQARGLQAAGQVQTLAEYETVLEAAHKLNPDFAALSHRAWLNSQTAALEGNHFPFARYQADAQEFAGDKVKGNLVLDRRYAPLLLDLMAGEWETLKPSRSPYSGREQLAVKVALGGGVKTDGGAFARALLFADDSGFEYVPFSAGLTLEAGLPDGRGDGPRQALQEPARQHTLLTALNAPLPAGLEATLTLNTDFGALFLLPLGPGREAEAAQQLQQYMSGVGRSRRLRVGLSLLPEHLESDKFPELLDAALTYLDALVDLLDGLMRPSEETSTEEIGVPGTRPVAPTPAAFVPVPGVPLNQILYGPPGTGKTYRVVDEALSVLDPAFLSAHPGSEGRAARKARYDELAAQGQISFVTFHQSFGYEDFIEGIKPVMSGGALSYVLQDGVFLEAVRSAGGALAPAAPEAGPSTETQPLVRPDAQVWRMYIDGTAPVSRIRDLSLGRGELRMGSYGKPPRDLTQAGVEDLSGRQLLFKESVRVGDLMLLATAADRIGAVGVVTGDYRFDPHSDPTFATDYAHTRSVKWLAQDLNVGATETLGKSFAPPTLQRVADVTPAQVLQALGVSTAGGETAHAPTPRPHVLIIDEINRGNISKIFGELITLLESGKRTGAPEALTVTLPLSRRPLSVPQSLYVIGTMNTADRSLTLLDAALRRRFVFRPVWPQPEVLPVLDLGGTALDLRKFLHVINDRIERLLSREQVIGHAYLLGLPATLGGVSSALRERILPLLEEYFFEDWSKIREVLGDESKAEALQFIHRSGSGPELRYRLNPEAFENIEAFTGVYAGVSDQDFPFDEGHHHHHH,soluble
10,MSGLKPVKPEGVQSEFSVRVAKRSDDIRYSVMMFNGMDKVDTSKWTIDSGVTMEREDNQRVILSTQTVQEYGEGSEYGKAAREEARRKKYGRQSKKYRLDNQPWKMAFTEPEGRQRQMRGIREGGANEHADYWVFLKPNQSSEFKAYKVDEWHKFLPAITHKTLDIDQAEEQFSQRYKVMNQFALKAAIQNQLSATDESEMTEQQKRLLKIKDEASSDDSDGDDEGEGGDDGKKAKNKKKKKKNAKPAKEKRQRVEDKDDVAKYESSDGEDEGREYDYISDSGTDSDREQVPSDEKIEKQLVGVAEEEGARESDSSESEDDLTKKLMKPYGDKKKGNDIEERDSSGTDSDVSDTEKLDSVVFMKANKDGEGGSGGTGKKRPPTEDSDLKMDNLGPSDAKKAKPAVKFEEGLNEETVRRYLRRKPHTTKELLHKMNGKCGNMSKSEMVTQLASILKAIEPNQSRQLKGKKEVLFFSLVNTIA,not soluble
11,MQQLPKLDLKNKVSAQEWQLRVDLAACYRLLQMHGWDDLIHTHISVCIPGTEHILINAFGLAFEEITASNLVKIDIKGNIIDKDCPFEINPAGFTIHSAVHEVRHDDICALHVHTNETIAVASVEEGLLPLSQYSMFALASMSYHDYEGLAVNDDEKLRLQNDLGDKNFMLLRNHGALTMGKTIGDAFMHMYDLTRACQIQLQVMATGMKPIYAPQSIIDGIKAQANIVHDGETGGQKAWPAMLRRVYRNDPTFAE,not soluble
12,MGHHHHHHSHMRTYSDKNELKEEVLKSYKKYIAEFNDIPEKLKDLRIDEVDRTPAENLAYQVGWTTLILKWESDEQSGLEVKTPTETFKWNQLGELYQHFTETYASLTIKELTAQLNDNVDAIGNMIDSMSDEVLFKPHMRNWADSATKNAVWEVYKFIHINTVAPFGTFRTKIRKWKKVALK,soluble
13,MHNNENVSGISAYLLGLIIGDGGLYKLKYKGNRSEYRVVITQKSENLIKQHIAPLMQFLIDELNVKSKIQIVKGDTRYELRVSSKKLYYYFANMLERIRLFNMREQIAFIKGLYVAEGDKTLKRLRIWNKNKALLEIVSRWLNNLGVRNTIHLDDHRHGVYVLNISLRDRIKFVHTILSSHLNPLPPE,soluble
14,MSLARHEAIVEPAQSTHTSGAHTSGAQAQPGVRPTTAAGRWRDVEMMAYKQDDAAPFRDVTRQLLFSDPRLACEWRYFEVAAGGYSTLEKHDHVHGVMIHRGKGQCLVGHHVSDVAVGDLVFIPPQTWHQFRANAGDVLGFLCLVNAERDRPQLPGDGDLAALRADPAIADFLSSEGHHHHHH,soluble
15,QAVVTQESALTTSPGETVTLTCRSSTGAVTTSNYANWVQEKPDHLFTGLIGGTNKRAPGVPARFSGSLIGDKAALTITGAQTEDEAIYFCALWDSNHLVFGGGTKLTVLGQPKSSPSVTLFPPSSEELETNKATLVCTITDFYPGVVTVDWKVDGTPVTQGMETTQPSKQSNNKYMASSYLTLTARAWERHSSYSCQVTHEGHTVEKSLSPADC,soluble
16,MGHHHHHHSHMAVRRPGCFLCREEAADLSSLKSMLDQLGVPLYAVVKEHIRTEVKDFQPYFKGEIFLDEKKKFYGPQRRKMMFMGFIRLGVWYNFFRAWNGGFSGNLEGEGFILGGVFVVGSGKQGILLEHREKEFGDKVNLLSVLEAAKMIKPQTLASEKK,not soluble
17,MKKIDRVIESIQSRITEGRLKPGQKLPSIRQAVDEFGVSKNTVIEAYERLSARGLIRSVHGAGFFVCASTPAPLSKATQPAHIVEAVDRLTLLTAQLDQEKLPVRVGDGRPPQSWMNDALPLRMKGNIFKNFVGDPSGYGGVSGHLQLRELIAARSNRADMSVHPDQIVTTFGANHALDLIIRRYLEPGDVVLVDDPGYYPLLGKFKLAKIRAIGVPRTPTGPDLDVMETLAAAHGPKMFFTQSTCQNPTGSSMSLPVAHGVLQVAQRFGLMVIDNDPFTDLPGNAGVPLSALDAFNSVIAISSFSKLLSASFRVGYVIARPEVARELTELKLLTVVNSSRFSEMVIAELIKSQRYGRHLNKLVNRLEEARRDYHRKVRKLGLDVFCAQETGYYSFLQLPHTVDEGQLVRKASAAGIMLAPGRLFAVDENPARPALRINVTRADDPRFYRFLKRQVIDGQV,not soluble
18,MRDMGEPKLKIVAMPSDTNPAGNIFGGWILSQIDLAGAIAARELSPERVVTISMDKVVFKEPVFIGDIISCYSKVVNVGNTSISVEVEVTAQRVDSQGCTSCINVTSALVTYVSVTRDGKKNPISEELKRIHGFLNALEHHHHHH,soluble
